Results: the DeepSol protein solubility set

Experiment: soluble on expression in E. coli; label from the status in PepcDB or PDB records
For “MGSDKIHHHHHHSCENEFDVSDKADSLISVTVNTLNNQAAYNVGETAQAELWIQRGGLKDASGKVQFVVDPLLLDSLNQEDKTNYELLPENCYEMTNTEFTVDKNELCGYITYHPEKILALSAYNETKYVLPLRLISNDLAINPARNTSFLAFTILEPIVHISNAGVYNINPDLTSTMDIQIGVPFTNKWDILCNLTEDLSLIDEYNQINKVNFTLLPENAYTAPESVTLQEGVSQITASYQLKNNLVPGNYILPIKIGSITASQGGVPNNSLVIDEESNVLFCIVKEGNKINKSGWEVIECSSEHAGNEATYMIDDNESTYWHCKFKNEAGSSVPPFHFIIDMKKEITIAQIDLLNRGDGAANNIKWVEFYASNNNSEWDKIGAGDFNDEGTRATFRYYVKSTKARYLKLIIPEGYGNNCPPAAIRELTVYGLEGNN”, the “soluble on expression in E. coli” value was “not soluble”. For “MGSDKIHHHHHHMQETKTTVRASTLSNGRSLAAYHEDFDRKWASAWGRTLTYAQMHANRVVQSARIVLSHPDIWGKVASGFVNAARGRKRLLRSLEIAVTYRCNARCEQCSCRRDHDPVREKTELLTLPELQRVIDEAVDMGAFQFCINGGEPMLEEEKVFALLDYIKTRHKGYVHLCTNGTLLDDDKVARLAEHHLDSVEMGFDSAFEDVHDANRVRGGYRKVFHNIEAFRKRGVGVVLNTILTNQKVRSDDMLFTMDLAKKHGCMLQVTPCCLTGALRGRMDMMLTEKARFYFYWFLAQSTNNRSDLYSSLTRIKCPAGREKLGLQPYGDVVSCPLIQIRYGNVREKGLAAIQQDILADPYYGLDGSHGCLPAMSETFIRERLSGDR”, the “soluble on expression in E. coli” value was “not soluble”. For “MGSDKIHHHHHHMNYPFIYPGAIHMHTTYSDGSATFPHLIAAAREAGLRWVIVTDHDTLEGLPFAGWHDDVLVIVGHEITPDHNHFLALNVDTVISNELPPQQFIDEVYQRGGFGIIAHPDERVRNSFKDIYRWDDWTIDGPSQRTGRVVGLELWNFMSDWGEHLTERNKLALVLYPQLGLSGPTLATLAWWDRLNMVGRRTFGIGGVDAHGFKRKAPWGEIEVFPYPWIFRTLTNYLLLPEPLSSDATTATNQVYAALTAGRCYFVNRLDGDAPSIIFRLSRPGDLAEIGDTISLAGGPLLVEVDVGADAYARLIVNGEVMTSGIRRIRQTVTDDGVYRVEAYWGGKPWLFTNPIFVTAADAGREGSL”, the “soluble on expression in E. coli” value was “not soluble”. For “MANSAGSMAPKVFYISDGTAITAEVFGHAVLSQFPLEFESLTIPFVETLAKAENVKRQINDCFITTGERPLVFHSIVKPEIRDIIYSSEGLDYDFLNTFVAPLEQHLGVSASPVLHRTHGKANQGYEARIDAINFAMDNDDGQTMKHMDQADLILLGVSRCGKTPSSLYLSMQFGIKAANYPFTEDDMDNLKLPEALKRNKKKLFGLTIDPVRLHEIRQSRMENSRYSSLKQCRLEVKEVEMMFKRERIPYIDTTNHSVEEIATKILDVTGLERHMFLEHHHHHH”, the “soluble on expression in E. coli” value was “not soluble”. In the case of “MTITYSGDELFLQLRGDLLNYLCRKLSKDEAADILQEIYLRWRRQDISSIENPRAFLFTVALNLIRDQARRQAHVQTYANTMQHLFQDKPADYDLAQHCDERRQIEYLQQALDQLPENVRHAFLLFRLDGLTFAEIALQMGISSKSVARYIQHASEHCLTALAQYR”, the “soluble on expression in E. coli” value was “not soluble”. With “MIKVKEDKNEQVKKRWGDKPYYSLNYFLREKFQDKVFKISLDAGFSCPNRDGTISRGGCMFCSERGSGDFAGNRKFSISTQFEDIKDMMKNKWKNGKYIAYFQAYTNTYAPIKVLREKYSEAISKDGVVGLAIATRPDCLSEEVLDLIQEFSKRIYVWVELGLQTANDKVAKVINRGYDTIVFDDAVKKLRERKIDVVVHTIFGLPGEKPKDMLSTIDYVAHKEVQGIKIHLLHLMRGTPLVELYNNGQLTFMSEEEYVETVCRAITMLPQNIV” the “soluble on expression in E. coli” value was “not soluble”. In the case of “MQSWYLLYCKRGQLQRAQEHLERQAVNCLAPMITLEKIVRGKRTAVSEPLFPNYLFVEFDPEVIHTTTINATRGVSHFVRFGASPAIVPSAVIHQLSVYKPKDIVDPATPYPGDKVIITEGAFEGFQAIFTEPDGEARSMLLLNLINKEIKHSVKNTEFRKL”, the “soluble on expression in E. coli” value was “soluble”. For “MFNYSGLNEECGVFGIWNHPEAAQLTYMGLHSLQHRGQEGAGIVVSDQNELKGERGLGLLTEAIKDDQMERLKGYQHAIGHVRYATSGNKGIENIQPFLYHFYDMSVGICHNGNLINAKSLRQNLEKQGAIFHSSSDTEVIMHLIRRSKAPTFEEALKESLRKVKGGFTFAILTKDALYGAVDPNAIRPLVVGKMKDGTYILASETCAIDVLGAEFVQDIHAGEYVVINDKGITVKSYTHHTTTAISAMEYIYFARPDSTIAGKNVHAVRKASGKKLAQESPVNADMVIGVPNSSLSAASGYAEEIGLPYEMGLVKNQYVARTFIQPTQELREQGVRVKLSAVKDIVDGKNIILVDDSIVRGTTIRRIVKMLKDSGANKVHVRIASPEFMFPSFYGIDVSTTAELISASKSPEEIKDYIGADSLAYLSVDGLIESIGLDYDAPYSGLCVESFTGDYPAGLYDYEANYKAHLSHRQKQYISKNKHFFDSEGNLNV”, the “soluble on expression in E. coli” value was “not soluble”. In the case of “MESKRLDNAALAAGISPNYINAHGKPQSISAETKRRLLDAMHQRTATKVAVTPVPNVMVYTSGKKMPMVVEGSGEYSWQLTTEEGTQYKGHVTGGKAFNLPTKLPEGYHTLTLTQDDQRAHCRVIVAPKRCYEPQALLNKQKLWGACVQLYTLRSEKNWGIGDFGDLKAMLVDVAKRGGSFIGLNPIHALYPANPESASPYSPSSRRWLNVIYIDVNAVEDFHLSEEAQAWWQLPTTQQTLQQARDADWVDYSTVTALKMTALRMAWKGFAQRDDEQMAAFRQFVAEQGDSLFWQAAFDALHAQQVKEDEMRWGWPAWPEMYKNVDSPEVRQFCEEHRDDVDFYLWLQWLAYSQFAACWEISQGYEMPIGLYRDLAVGVAEGGAETWCDRELYCLKASVGAPPDILGPLGQNWGLPPMDPHIITARAYEPFIELLRANMQNCGALRIDHVMSMLRLWWIPYGETADQGAYVHYPVDDLLSILALESKRHRCMVIGEDLGTVPVEIVGKLRSSGVYSYKVLYFENDHEKTFRAPKAYPEQSMAVAATHDLPTLRGYWESGDLTLGKTLGLYPDEVVLRGLYQDRELAKQGLLDALHKYGCLPKRAGHKASLMSMTPTLNRGLQRYIADSNSALLGLQPEDWLDMAEPVNIPGTSYQYKNWRRKLSATLESMFADDGVNKLLKDLDRRRRAAAKKK”, the “soluble on expression in E. coli” value was “not soluble”. In the case of “MNKRDYMNTSVQEPPLDYSFRSIHVIQDLVNEEPRTGLRPLKRSKSGKSLTQSLWLNNNVLNDLRDFNQVASQLLEHPENLAWIDLSFNDLTSIDPVLTTFFNLSVLYLHGNSIQRLGEVNKLAVLPRLRSLTLHGNPMEEEKGYRQYVLCTLSRITTFDFSGVTKADRTTAEVWKRMNIKPKKAWTKQNTL”, the “soluble on expression in E. coli” value was “soluble”. For “GPGSMAFHPRDAFILHQEQIQRYNEGDEVDTSAEQKVQIELQRLTDSESTVTIAFSHEDHTLGNPLRHVLMQNREVTSAGYAIPHPLEAKMLLHVQSTDYAVEAVAEGLERLASICDETLQSFEDCMHRMRCEGAKQE”, the “soluble on expression in E. coli” value was “not soluble”. In the case of “MGSDKIHHHHHHMYSCYNNFVKYALTMQFDIEVDVMYEVKLDAFNGPLDLLLHLIQKYEIDIYDIPMKALTEQYMQYVHAMNQLEINVASEYLVMASELLMIKSKLLLPQTSIEEDIEEDPREDLVGRLIEYQNYKEYTEILNTMKEERDLYFTKHPTDLTHLETNESWDPNQTIDLTELIVAYQRVKNRVELNTPKSVEIKKETFTIQQATAQVTERLKQHESFNFFSLFTFHEPVEQVVTHFLAILEMSKSGIVNIKQTKQFDDIDIIRGVNYSIG”, the “soluble on expression in E. coli” value was “not soluble”. With “MAHHHHHHMGTLEAQTQGPGSMDKTLDKQVAIVTGASRGIGRAIALELARRGAMVIGTATTEAGAEGIGAAFKQAGLEGRGAVLNVNDATAVDALVESTLKEFGALNVLVNNAGITQDQLAMRMKDDEWDAVIDTNLKAVFRLSRAVLRPMMKARGGRIVNITSVVGSAGNPGQVNYAAAKAGVAGMTRALAREIGSRGITVNCVAPGFIDTDMTKGLPQEQQTALKTQIPLGRLGSPEDIAHAVAFLASPQAGYITGTTLHVNGGMFMS” the “soluble on expression in E. coli” value was “soluble”. With “AVYGIDAMNPSSRDDFTEFGKLLKDKITQYEKSLYYASFLEVLVRDVCISLEIDDLKKITNSLTVLCSEKQKQEKQSKAK” the “soluble on expression in E. coli” value was “soluble”. In the case of “MGSDKIHHHHHHMGPLSGITILDLTSVLMGPYATQTLADMGADVVKVESPEGDIVRHIGPGRTPGMGGMFLNTNRGKRSIVIDLKQNDGREALLRLAARANALIYNVRPQAMARLGLSYEQVAAVNPGIVYLGAFGYGQDGPYAAKPAYDDLIQGAAGVPTLLAAAGDGTPRYVPITIADRIVGLMAVNAMLGALMHQQRTGEGQRIDVPMFESMASFVLVDHLGGLTYEPPLDHGGYARLLSRSRKPYRTSDGYLCVLIYNDKQWRSFFEAIDRTDFLAQPRFANHAARTRHIDEIYEEIGAIFLTRTTAEWRELLERADIPVMPMHSMESILDDPHLRAVGFFETVEHPVEGRVRQMKVPSTWSATQPQPGGPAPTLGGNGRDILTEAGFSSAEIERLGHSKAVHLPD”, the “soluble on expression in E. coli” value was “not soluble”. With “SMFNNELMADVHFVVGPPGATRTVPAHKYVLAVGSSVFYAMFYGDLAEVKSEIHIPDVEPAAFLILLKYMYSDEIDLEADTVLATLYAAKKYIVPALAKACVNFLETSL” the “soluble on expression in E. coli” value was “soluble”. For “MARLSDLIEAFIKQLIDDTDGTIEIQRNELASQFNCVPSQINYVIDTRFTTERGYYVESRRGGGGYIKITRVSIGHEGKNYLMHIINSMGDSISQQSAHVFINNFVDHNVVTEKEAMLLKAATSDKALAAVPVESRGQIRASILKNMLVCLLV”, the “soluble on expression in E. coli” value was “soluble”. With “MSLTKKELPLDGLIPYCEQCGDFRFPVFSVAVSMIVMNEGGDQVLLIKQYWKDSYILVAGYVNKGENAEDSCRRELMEELHLTAKSLHFNRSQYFAPSNTLMLNYTVTVDQAEKVSPNEEIDAWNWLSIDEARRQIRPNSLARTFLLEYLNKCKLHREGHHHHHH” the “soluble on expression in E. coli” value was “soluble”. For “MTTLRTLMAVSLVLNLAACGFKLRGQVSELPFERVYITAPAGLTIGSDLERVISTHTRAKVVNKAEKSEAIIQIVHAIREKRILSLSESGRVREFELVYRVAARLLDAHNAELASLQEIRLTRILPFLDAQELAKAAEEEMLYKDMQKDAVQQILRQVSAVTSAGLEHHHHHH”, the “soluble on expression in E. coli” value was “not soluble”. With “GSLSRLSYKSNNNSFVLGIGISVPGEPISQQSLKDSISNDFSDKAETNEKVKRIFEQSQIKTRHLVRDYTKPENSIKFRHLETITDVNNQFKKVVPDLAQQACLRALKDWGGDKGDITHIVSVTSTGIIIPDVNFKLIDLLGLNKDVERVSLNLMGCLAGLSSLRTAASLAKASPRNRILVVCTEVCSLHFSNTDGGDQMVASSIFADGSAAYIIGCNPRIEETPLYEVMCSINRSFPNTENAMVWDLEKEGWNLGLDASIPIVIGSGIEAFVDTLLDKAKLQTSTAISAKDCEFLIHTGGKSILMNIENSLGIDPKQTKNTWDVYHAYGNMSSASVIFVMDHARKSKSLPTYSISLAFGPGLAFEGCFLKNVV” the “soluble on expression in E. coli” value was “soluble”. For “AIADTGELHDLTVKGAVVTQLERCEVACQRLFQNLALLGLELQNSESITEGVCDSKAASDLGSSVELLENEERALRLCVDRFVLELRQVENLAKTLDGIREEEERILSLEQRSIEQAERCFYLWNDAREMLRGTRLTSIKEVLESAARYPRIPSWTPLPTSN”, the “soluble on expression in E. coli” value was “soluble”. In the case of “MNYIGSKYKLIPFIKENIHAVVGDNLSGTIFCDLFAGTGIVGRAFKKAVNKVISNDLEYYSFVLNQNYIGNIQEIPNQEELINEINSVALKKGFIYSYYSLGGSSRQYFSETNAQKIDAMRLKIEELKLSQNIDNCTYYFLLASLLESADKVANTASVYGAFLKRLKKSAQKELILKGADFDLSLNANEVYQQDASELIGKISGDILYLDPPYNARQYGANYHLLNTIAIYTPFAPKGKTGLPSYQKSSFCSRAKILNAFENLIKTARFKYIFLSYNNEGLMSETEIGNILKKYGTYSLMTKTYMRFKADNKRTHKAAHTKECLHILIK”, the “soluble on expression in E. coli” value was “not soluble”.
